According to patent US20210403565A1 (BIOATLA, published 2021):

T1: human CTLA4 expressed on the cell surface of CHO cells (human, UniProt P16410 36-223)
T1 construct: whole, on cells; also called CHO-huCTLA4; huCTLA4
T1 sequence (looked up): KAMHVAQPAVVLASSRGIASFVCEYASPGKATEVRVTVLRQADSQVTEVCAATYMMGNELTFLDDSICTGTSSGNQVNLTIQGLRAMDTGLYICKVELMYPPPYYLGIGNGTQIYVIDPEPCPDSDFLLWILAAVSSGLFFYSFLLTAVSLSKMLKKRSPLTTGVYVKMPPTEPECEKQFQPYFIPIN

T2: recombinant human CTLA4 extracellular domain (human, UniProt P16410 36-161)
T2 construct: extracellular domain; also called huCTLA-4
T2 sequence (looked up): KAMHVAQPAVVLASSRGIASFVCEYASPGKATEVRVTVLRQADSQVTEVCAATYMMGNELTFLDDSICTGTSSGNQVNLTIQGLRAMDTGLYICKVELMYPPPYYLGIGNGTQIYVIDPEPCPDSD

T3: recombinant cynomolgus CTLA4 extracellular domain (cynomolgus, UniProt G7PL88 36-161)
T3 construct: extracellular domain; also called cynoCTLA-4; cynoCTLA4
T3 sequence: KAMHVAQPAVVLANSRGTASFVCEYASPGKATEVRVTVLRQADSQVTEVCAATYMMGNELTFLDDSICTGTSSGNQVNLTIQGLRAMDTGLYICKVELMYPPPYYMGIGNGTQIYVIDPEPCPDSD

T4: cynomolgus CTLA4 expressed on the cell surface of CHO cells (cynomolgus, UniProt G7PL88 36-223)
T4 construct: whole, on cells; also called CHO-cynoCTLA4
T4 sequence: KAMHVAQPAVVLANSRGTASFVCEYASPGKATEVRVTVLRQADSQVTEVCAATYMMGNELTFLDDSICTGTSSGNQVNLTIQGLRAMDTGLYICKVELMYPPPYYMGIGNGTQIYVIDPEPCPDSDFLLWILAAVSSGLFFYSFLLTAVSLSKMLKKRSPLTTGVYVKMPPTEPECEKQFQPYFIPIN

B1: BA-087-08-32 (antibody, V domains shown)
VH: EVQLVQSGAEVKKPGATVKISCKVSGFTFSHYTMHWIRQSPSRGLEWLGFISYDGNYKYYADSVKGRFTISRDNAKNSLYLQMNSLRAEDTAVYYCARTGWLGPFDYWGQGTLVTVSS
VL: EIVMTQSPATLSVSPGERATLSCRASQSVGSSYLAWYQQKPGKAPKLLIYGAFSRATGVPSRFSGSGSGTDFTLTISSLQPEDFATYYCQQDGSSPWTFGQGTKVEIK
notes: Detected with anti-human IgG and a molecular weight of 146 kDa was used in SPR, so it was tested as a whole IgG; also called BA-087-08-032; BA-087-08-32 (# 6978)
B2: BA-087-05-19 (antibody, V domains shown)
VH: EVQLVESGGGLVQPGGSLRLSCAASGFTFSHYTMHWVRQAPGKGLEWVSFISYDGNNKYYADSVKGRFTISRDNSKNTLYLQMNSLRAEDTAVYYCARTGWLGPFDYWGQGTLVTVSS
VL: AIQLTQSPSSLSASVGDRVTITCRASQYVGSSYLAWYLQKPGQSPQLLIYGAFSRATGIPARFSGSGSGTEFTLTISSLQSEDFAVYYCQQDGSSPWTFGQGTKVEIK
notes: Detected with anti-human IgG and a molecular weight of 146 kDa was used in SPR, so it was tested as a whole IgG; also called BA-087-05-019; BA-087-05-19 (# 6972)

Assays:
[1] = molecular target: T1, human CTLA4 expressed on the cell …; experiment: FACS on CHO-huCTLA4 cells, pH 6.0, mean
Method: (§1) The amount of antibodies bound on the cells was quantified using anti-human IgG antibody conjugated to fluorophores. EC₅₀ values at pH 6.0 and 7.4 for binding to cells were calculated using the nonlinear fit (variable slope, four parameters) model built into GraphPad Prism software (version 7.03). The expression levels of human CTLA4 or cynomolgus CTLA4 on the surface of the CHO cells were determined using a BD QuantiBRITE™ PE kit.

[2] = molecular target: T2, recombinant human CTLA4 extracellular …; experiment: SPR, human CTLA4 ECD immobilised, pH 6.0, run 1
Method: (§2) The CTLA4 extracellular domain (human or cynomolgus) was immobilized on the surface of a sensor chip. […] The binding kinetics were calculated using a 1:1 Longmuir model built into the analysis software.

[3] = molecular target: T2, recombinant human CTLA4 extracellular …; experiment: SPR, human CTLA4 ECD immobilised, pH 7.4, run 1
Method: as §2

[4] = molecular target: T2, recombinant human CTLA4 extracellular …; experiment: SPR, human CTLA4 ECD immobilised, pH 6.0, run 2
Method: as §2

[5] = molecular target: T2, recombinant human CTLA4 extracellular …; experiment: SPR, human CTLA4 ECD immobilised, pH 6.0, run 3
Method: as §2

[6] = molecular target: T2, recombinant human CTLA4 extracellular …; experiment: SPR, human CTLA4 ECD immobilised, pH 7.4, run 2
Method: as §2

[7] = molecular target: T2, recombinant human CTLA4 extracellular …; experiment: ELISA, immobilised huCTLA-4, pH 6.0, Jul. 11, 2017
Method: (§3) EC₅₀ values at pH 6.0 for binding to human CTLA4 were calculated using the nonlinear fit model (variable slope, four parameters) of GraphPad Prism version 7.03.

[8] = molecular target: T2, recombinant human CTLA4 extracellular …; experiment: ELISA, immobilised huCTLA-4, pH 6.0, Jun. 29, 2017
Method: as §3

[9] = molecular target: T3, recombinant cynomolgus CTLA4 …; experiment: SPR, cynomolgus CTLA4 ECD immobilised, pH 6.0, equilibrium fit; SPR, pH 6.0
Method: as §2
The KD was calculated by plotting the maximum SPR signal at each concentration against the antibody concentration. Experiments were run in triplicate at each pH.

[10] = molecular target: T3, recombinant cynomolgus CTLA4 …; experiment: ELISA, immobilised cynoCTLA-4, pH 6.0, Jun. 19, 2017; ELISA, pH 6.0, Jun. 19, 2017
[11] = molecular target: T1, human CTLA4 expressed on the cell …; experiment: FACS, CHO cells expressing human CTLA4 (CHO-huCTLA-4), pH 6.0, MFI; no unit in the table, unit from the axis Log Antibodies [ng/ml]
Method: as §1
(§4) At least two independent duplicate FACS experiments were performed for each antibody using each of the cell lines. The binding activities at different concentrations of the antibodies are plotted in these figures.

[12] = molecular target: T4, cynomolgus CTLA4 expressed on the cell …; experiment: FACS, CHO cells expressing cynomolgus CTLA4 (CHO-cynoCTLA-4), pH 6.0, MFI; no unit in the table, unit from the axis Log Antibodies [ng/ml]
Method: as §1, §4

[13] = molecular target: T1, human CTLA4 expressed on the cell …; experiment: FACS competition on CHO-huCTLA4: antibody titrated against a fixed concentration of hB7-1 (hCD80), bound hB7-1 detected, % competition, plateau about 97 %; pH 6.0 per the text; unit from the axis CTLA4 Ab concentration Log(ng/mL)
[14] = molecular target: T1, human CTLA4 expressed on the cell …; experiment: FACS competition on CHO-huCTLA4: antibody titrated against a fixed concentration of hB7-2 (hCD86), bound hB7-2 detected, % competition, plateaus about 48 to 57 %; pH 6.0 per the text; unit from the axis CTLA4 Ab concentration Log(ng/mL)

Row | Binder | EC50 [1] [µg/mL] | Kd [2] [nM] | koff [2] [s⁻¹] | kon [2] [M⁻¹ s⁻¹] | Kd [3] [nM] | koff [3] [s⁻¹] | Kd [4] [nM] | koff [4] [s⁻¹] | kon [4] [M⁻¹ s⁻¹] | Kd [5] [nM] | koff [5] [s⁻¹] | kon [5] [M⁻¹ s⁻¹] | Kd [6] [nM] | EC50 [7] [µg/mL] | EC50 [8] [µg/mL] | Kd [9] [nM] | EC50 [10] [µg/mL] | EC50 [11] [µg/mL] | EC50 [12] [µg/mL] | EC50 [13] [µg/mL] | also measured
1 | B1 | 0.243 | 0.365 | 0.0012 | 3.29e+06 | 52.5 | 0.0284 | 0.463 | 0.00154 | 3.32e+06 | 0.524 | 0.00214 | 4.08e+06 | 14.9 | 0.00617 | 0.00857 | 5.95 | 0.259 | 0.168 | 0.354 | 0.567 | EC50 [14]: 0.456 µg/mL
2 | B2 | 0.35 | 0.472 | 0.000631 | 1.34e+06 | 1.39 | 0.00126 | 0.481 | 0.000604 | 1.26e+06 | 0.543 | 0.000598 | 1.1e+06 | 0.781 | 0.00835 | 0.00659 | 1.96 | 0.0159 | 0.247 | 0.242 | 0.745 | kon [3]: 906000 M⁻¹ s⁻¹; koff [6]: 0.000669 s⁻¹; kon [6]: 857000 M⁻¹ s⁻¹; EC50 [14]: 0.592 µg/mL
